From the supplement of paper PMC9732359
± gives the uncertainty stated by the source.

Experiment: protein stability index of a GFP-peptide fusion (yeast GPS) (PSI 1-4); higher = more stable; sorted into four equal gates, so the index is relative within each strain
Method in brief: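 Mid-log yeast cultures in leucine-free medium, carrying a pooled plasmid library, were sorted into four equal gates by their GFP/Cherry fluorescence ratio. Each plasmid expressed Cherry along with GFP fused upstream of a tiled 17-residue yeast protein peptide. Plasmids recovered from each gate were PCR-amplified and Illumina-sequenced, with reads assigned to strains by barcodes. The protein stability index was obtained by summing each gate's read frequency weighted by its gate number.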

Row | Sequence | protein stability index (doa10∆) | protein stability index (pdr5∆) | protein stability index (san1∆) | protein stability index (ubr1∆)
1 | YVSALKRINKFLDSVHK [POP7] | 1.91 ± 0.049 | 1.56 ± 0.037 | 2 ± 0.068 | 1.8 ± 0.034
2 | VSITDAPKIHILDPSTE [YMR129W/POM152] | 1.56 ± 0.055 | 1.95 ± 0.056 | 1.53 ± 0.061 | 1.54 ± 0.061
3 | RTPDSISVNSSSFSLTF [POP1] | 2.56 ± 0.045 | 2.62 ± 0.042 | 2.44 ± 0.045 | 2.37 ± 0.038
4 | VMYGTAYKFEEVSKDLI [RPB8] | 2.9 ± 0.062 | 3.18 ± 0.061 | 3.34 ± 0.044 | 3.09 ± 0.051
5 | TKNLSILTSKVNAIKNE [DSN1] | 1.66 ± 0.076 | 2.13 ± 0.056 | 2.39 ± 0.11 | 1.69 ± 0.06
6 | ALSYAALILADSEIEIS [RPP1A] | 1.8 ± 0.058 | 1.93 ± 0.062 | 1.78 ± 0.06 | 1.9 ± 0.04
7 | IESNKLAGVLYESRNVA [RRP6] | 2.93 ± 0.062 | 3.11 ± 0.074 | 3.07 ± 0.1 | 3.08 ± 0.062
8 | NLNELESQLQMDRTSLR [SMC3] | 2.57 ± 0.15 | 2.59 ± 0.16 | 2.5 ± 0.22 | –
9 | WGHPTRMLLNLCKSATT [BRR2] | 1.47 ± 0.047 | 1.55 ± 0.046 | 1.75 ± 0.066 | 1.35 ± 0.046
10 | LCHPKKEKYGLAVSTIL [SMC1] | 2.29 ± 0.063 | 2.31 ± 0.063 | 2.23 ± 0.091 | 2.15 ± 0.048
11 | EHTDVIDELIDTKLRLE [YIL149C/MLP2] | 2.87 ± 0.052 | 3 ± 0.059 | 2.77 ± 0.039 | 2.7 ± 0.034
12 | KAPEAEQVLSAAATFPI [RPL13A] | 2.97 ± 0.071 | 2.76 ± 0.075 | 2.96 ± 0.078 | 2.81 ± 0.04
13 | DQDKVNFASGDNNTASN [RPB3] | 2.85 ± 0.16 | 2.36 ± 0.14 | – | 2.5 ± 0.18
14 | AVLSYYKVDAEGKVTKL [RPS31] | 2.98 ± 0.11 | 2.99 ± 0.13 | 3.03 ± 0.083 | 3.27 ± 0.065
15 | QHTSFQEAVNSLKGYKI [CSI1] | 3.15 ± 0.1 | 3.21 ± 0.065 | 3.35 ± 0.048 | 3.39 ± 0.067
16 | ASLTAARTAANSIYCPT [RPN6] | 2.53 ± 0.19 | 2.66 ± 0.1 | 2.84 ± 0.093 | 2.49 ± 0.045
17 | NNMNVNMNLNPQMFLNQ [GAL11] | 2.14 ± 0.043 | 2.56 ± 0.046 | 2.46 ± 0.048 | 2.48 ± 0.035
18 | EMGKLRERDITSLFHKF [RRI2] | 1.8 ± 0.071 | 1.83 ± 0.071 | 1.79 ± 0.17 | 1.95 ± 0.058
19 | DVVEYLDKVINKELPIN [RPN8] | 2.82 ± 0.22 | 3 ± 0.2 | – | 3.12 ± 0.19
20 | AEDVALNEQVKKFFLNN [NAS6] | 2.12 ± 0.058 | 2.18 ± 0.069 | 2.11 ± 0.067 | 2.04 ± 0.068
21 | KLKECPFDMGGYFIING [RPB2] | 3 ± 0.078 | 3.07 ± 0.082 | 2.72 ± 0.073 | 3.07 ± 0.051
22 | LIRPSSKVIIKFLQVMQ [RPS22A] | 1.86 ± 0.036 | 1.82 ± 0.03 | 2.02 ± 0.052 | 2.25 ± 0.034
23 | QIRACKDLKHIIYYKFN [PRP8] | 1.72 ± 0.037 | 1.73 ± 0.037 | 1.84 ± 0.056 | 1.59 ± 0.042
24 | KMENLMRLIKRVRAESL [YJL039C/NUP192] | 1.49 ± 0.083 | 1.19 ± 0.1 | 1.32 ± 0.23 | 1.12 ± 0.099
25 | RRRKGISTGGFMSNDGP [SNU114] | 1.46 ± 0.086 | 1.47 ± 0.1 | 1.18 ± 0.14 | 1.33 ± 0.063
26 | MKRMVAQWERSKLSQEF [SNF12] | 3.23 ± 0.22 | 3.05 ± 0.15 | 3.11 ± 0.23 | 3.21 ± 0.087
27 | IRNLTVFTMKELAQYMK [RGR1] | 3.04 ± 0.24 | 2.78 ± 0.22 | 2.71 ± 0.2 | 2.79 ± 0.08

Row | Sequence | protein stability index (doa10∆) | protein stability index (pdr5∆) | protein stability index (san1∆) | protein stability index (ubr1∆)
28 | GSKISSNDLDKFFQKKI [YGL172W/NUP49] | 1.72 ± 0.069 | 2.02 ± 0.076 | 1.7 ± 0.074 | 2.27 ± 0.057
29 | EESIKIYPLIKPGSTVM [UBP6] | 2.94 ± 0.18 | 3.01 ± 0.093 | – | 2.96 ± 0.17
30 | GTGKPEAIHDMFTYSQE [RPN2] | 2.8 ± 0.16 | – | 3.12 ± 0.071 | 2.72 ± 0.11
31 | GADVTNTTQDNGGDKEL [YCS4] | 3.18 ± 0.12 | 3.19 ± 0.083 | 3.1 ± 0.065 | 3.26 ± 0.074
32 | VTDDPIWMRGHGTYFLD [RRP4] | 3.22 ± 0.067 | 3.17 ± 0.078 | 3.47 ± 0.056 | 3.07 ± 0.065
33 | FATNEERQMNFLTNELI [SWI3] | 3.28 ± 0.1 | 2.32 ± 0.07 | 1.96 ± 0.14 | 2.62 ± 0.053
34 | MEVLGIEAGRAALYKEV [RPO21] | 2.55 ± 0.14 | 2.9 ± 0.2 | 2.4 ± 0.16 | 2.76 ± 0.12
35 | QTKEIKTERVEDQKVVD [RPL6B] | 3.55 ± 0.088 | 3.33 ± 0.11 | 3.48 ± 0.068 | 3.53 ± 0.076
36 | YSDIGGLESQIQEIKES [RPT2] | 1.8 ± 0.095 | 1.97 ± 0.08 | 1.88 ± 0.096 | 2.52 ± 0.091
37 | ADVTHFVKPGTALDAEG [DIS3] | 2.9 ± 0.094 | 3.33 ± 0.2 | 3.04 ± 0.076 | 3.08 ± 0.081
38 | MENDKGQLVELYVPRKC [RPS21A] | 3.17 ± 0.14 | – | 3.23 ± 0.12 | 3.25 ± 0.091
39 | QQQIESNEEQRNLDSAT [SMC3] | – | – | 3.43 ± 0.091 | –
40 | ERLKVPILVTLVSDSEI [POP6] | 1.55 ± 0.035 | 1.86 ± 0.04 | 1.58 ± 0.066 | 1.66 ± 0.025
41 | QLHFSLLDEEAEQSFDQ [RPO21] | 2.51 ± 0.11 | 2.77 ± 0.14 | 3.29 ± 0.1 | 2.64 ± 0.22
42 | SIDPPGCVDIDDALHAK [DIS3] | 3.12 ± 0.085 | 3.19 ± 0.072 | 3.25 ± 0.071 | 3.31 ± 0.06
43 | MKVKADRDESSPYAAML [RPS14A] | 3.37 ± 0.1 | 3.29 ± 0.065 | 3.23 ± 0.048 | 3.27 ± 0.068
44 | LLPTNNGQPLNQNFSLT [GRR1] | 3.06 ± 0.058 | 2.95 ± 0.045 | 2.81 ± 0.045 | 3.02 ± 0.047
45 | ILKRDFELVSDLSYIEF [ECM29] | 2.54 ± 0.079 | 2.67 ± 0.078 | 2.58 ± 0.072 | 2.76 ± 0.054
46 | RKFERARGRRRSKGFKV [RPL18A] | 3.28 ± 0.1 | 3.24 ± 0.094 | 3.54 ± 0.12 | 3.15 ± 0.059
47 | EENEDNDGNNRTNNVPM [NUT1] | 3.11 ± 0.12 | 3.39 ± 0.11 | 3.31 ± 0.16 | 3.56 ± 0.089
48 | GYDKSGAHLLEFQPSGN [PRE5] | 2.68 ± 0.25 | 3.22 ± 0.18 | 2.79 ± 0.21 | –
49 | TTVIGIRGSDQAIPKFQ [RPN2] | – | 2.74 ± 0.23 | – | –
50 | YENKQLYFPDDYPFTQL [POP1] | 2.92 ± 0.048 | 2.99 ± 0.039 | 2.93 ± 0.043 | 3.01 ± 0.036
51 | IDDVQTIKVVKRSMDAE [RPP1] | 3.18 ± 0.054 | 2.89 ± 0.057 | 3.06 ± 0.039 | 3 ± 0.051
52 | KPGQNNRQQKKRRFDPS [RRP6] | 2.78 ± 0.089 | 2.99 ± 0.11 | 3.21 ± 0.13 | 2.56 ± 0.08
53 | PLHSGKTSLMDLLVIDS [SNU114] | 2.48 ± 0.068 | 2.75 ± 0.085 | 2.81 ± 0.1 | 2.47 ± 0.048
